Laboratory results published in patent publication US9982028B2, “Recombinant human interferon-like proteins” (Novagen Holding Corporation, priority 2007, dated 2018).
Where “and” joins values, the source holds several entries; their conditions need not be identical. Equal entries are not always repeated. Entries after “also recorded” stand apart in the source; their conditions may differ.

How the values were obtained:
[1] = test system: human melanoma A-375 xenografts; test: Human melanoma xenograft model; format: in vivo, athymic nude Balb/c mice; settings: A-375 xenograft; for Tumor weight (X ± SD): n = 10
[2] = test system: human colon cancer LS 180 xenografts; test: Human colon cancer xenograft model; format: in vivo, athymic nude Balb/c mice; settings: LS 180 xenograft; for Tumor weight (X ± SD): n = 10
[3] = test system: human leukemia HL 60(s) xenografts; test: Human leukemia xenograft model; format: in vivo, athymic nude Balb/c mice; settings: HL 60(s) xenograft; for Tumor weight (X ± SD): n = 10
[4] = General condition of the mice during treatment; format: in vivo; settings: mice with human cancer xenografts, during the treatment period
[5] = test system: Vesicular Stomatitis Virus (VSV) on WISH cells; format: cell-based; settings: against VSV on WISH; units with reference to WHO international standards 94/786 and 95/650
[6] = test system: PLC/PRF/5 hepatoma cell line; test: Anti-proliferative assay, PLC/PRF/5; format: cell-based, human
[7] = test system: A549 lung carcinoma cell line; test: Anti-proliferative assay, A549; format: cell-based, human
[8] = test system: DU 145 prostate carcinoma cell line; test: Anti-proliferative assay, DU 145; format: cell-based, human
[9] = test system: Hep G2 hepatocellular carcinoma cell line; test: Anti-proliferative assay, Hep G2; format: cell-based, human; settings: HepG2
[10] = test system: HuH-7 hepatoma cell line; test: Anti-proliferative assay, HuH-7; format: cell-based, human
[11] = test system: Hep3B hepatocellular carcinoma cell line; test: Anti-proliferative assay, Hep3B; format: cell-based, human
[12] = test system: IPC-298 melanoma cell line; test: Anti-proliferative assay, IPC-298; format: cell-based, human
[13] = test system: LS174T colorectal adenocarcinoma cell line; test: Anti-proliferative assay, LS174T; format: cell-based, human
[14] = test system: IGR-37 melanoma cell line; test: Anti-proliferative assay, IGR-37; format: cell-based, human
[15] = test system: PC-3 prostate carcinoma cell line; test: Anti-proliferative assay, PC-3; format: cell-based, human
[16] = test system: HeLa cervix adenocarcinoma cell line; test: Anti-proliferative assay, HeLa; format: cell-based, human
[17] = test system: C-33A cervix carcinoma cell line; test: Anti-proliferative assay, C-33A; format: cell-based, human
[18] = test system: MKN 1 gastric adenocarcinoma cell line; test: Anti-proliferative assay, MKN 1; format: cell-based, human
[19] = test system: HCT-8 colorectal adenocarcinoma cell line; test: Anti-proliferative assay, HCT-8; format: cell-based, human
[20] = test system: SW 1116 colorectal adenocarcinoma cell line; test: Anti-proliferative assay, SW 1116; format: cell-based, human
[21] = test system: DLD-1 colorectal adenocarcinoma cell line; test: Anti-proliferative assay, DLD-1; format: cell-based, human
[22] = test system: HL-60(S) lymphocytic cell line; test: Anti-proliferative assay, HL-60(S); format: cell-based, human
[23] = test system: LS 180 colorectal adenocarcinoma cell line; test: Anti-proliferative assay, LS 180; format: cell-based, human
[24] = test system: KYSE 30 esophagus carcinoma cell line; test: Anti-proliferative assay, KYSE 30; format: cell-based, human
[25] = test system: A-375 melanoma cell line; test: Anti-proliferative assay, A-375; format: cell-based, human
[26] = test system: IGR-1 melanoma cell line; test: Anti-proliferative assay, IGR-1; format: cell-based, human
[27] = test system: L-428 Hodgkin's lymphoma cell line; test: Anti-proliferative assay, L-428; format: cell-based, human
[28] = test system: human prostate cancer PC-3 xenografts; test: Human prostate cancer xenograft model; format: in vivo, athymic nude Balb/c mice; settings: PC-3 xenograft; for Inhibition rate / Tumor weight (mean ± SD): 30 days; for Tumor weight (mean ± SD): n = 10
Description: Colon cancer cell line (LS 180), melanoma cell line (A-375) and liver cancer cell line (Hep G2) were obtained from the American Type Culture Collection (ATCC, Rockville, Md.). Prostate cancer cell line (PC-3) was obtained from German National Resource Centre for Biological Material (DSMZ, Deutsche […] von Mikroorganismen and Zellkulturen, Germany). Lymphocytic cell line (HL 60(s) was purchased from Japanese Collection of Research Bioresources Cell Bank (JCRB, Japan). All cells were cultured according to their instructions (see Table 1). Briefly, LS 180 and Hep G2 were cultured in MEM medium. A-375 was cultured in DMEM. Both media were supplemented with 10% fetal bovine serum (FBS), 2 mM […] U/ml of penicillin, […] of streptomycin, 0.1 mM non-essential amino acids, and 1.0 mM sodium pyruvate. PC-3 and HL 60 (S) cells were cultured in RPMI 1640, supplemented with 10% FBS, 100 U/ml of penicillin, and […] of streptomycin. All cells were maintained in 5% CO2 atmosphere at 37° C. […] For the treatment of 5-FU, 30 mg/kg of 5-FU was i.v. administrated once every two days for a total of 5 times. The groups and treatment doses are summarized below: Once treatment commenced, tumors were measured with a caliper once a week. […] Mice were sacrificed at the day of treatment discontinuation (day 30 after commencement of the treatment). Solid tumors were isolated, photographed, and measured. […] C is the average tumor weight in control group after treatment.

[29] = test system: human liver cancer Hep G2 xenografts; test: Human liver cancer xenograft model; format: in vivo, athymic nude Balb/c mice; settings: 30 days; for Tumor weight (mean ± SD): n = 10
[30] = 30 mg/kg (30,000 μg/kg) i.v. once every 2 days for 5 times

Molecule: O=c1[nH]cc(F)c(=O)[nH]1 [5-FU, 5-Fluorouracil, reference compound]
- Inhibition rate [1, 30]: 67.2%
- Tumor weight (X ± SD) [1, 30]: 1.004 ± 0.105 g
- Inhibition rate [2, 30]: 81.8%
- Tumor weight (X ± SD) [2, 30]: 0.758 ± 0.227 g
- Inhibition rate [3, 30]: 76.0%
- Tumor weight (X ± SD) [3, 30]: 0.893 ± 0.289 g
- general condition of treated mice (eating, behavior, weight loss) [4]: significant weight loss and activity reduction; also recorded: showed typical changes of eating and behavior, and weight loss

B1: Novaferon: novel recombinant non-naturally occurring human interferon-like protein, 166 amino acids (SEQ ID No: 2), from Type I interferon shuffling library, expressed in E. coli (protein)
chain: CNLSQTHSLGSKRTLMLLAQMGKISLFSCLKDRHDFEFPQEEFDGNQFQKAQAISVLHELIQQTFNLFSTKESSAAWDEGLLDKFRTELYRQLNDLEACMMQEVGVEETPLMNADSILAVKKYFQRITLYLMEKKYSPCAWEVVRVEIMRSLSFSTNLQKRLRGKD
- anti-viral activity [5]: 2.5×10^9 IU/mg
- Fold (Novaferon/HuIFN-α2b), increased tumor cell inhibition [6]: 16 fold
- Fold (Novaferon/HuIFN-α2b), increased tumor cell inhibition [7]: 19 fold
- Fold (Novaferon/HuIFN-α2b), increased tumor cell inhibition [8]: 36 fold
- Fold (Novaferon/HuIFN-α2b), increased tumor cell inhibition [9]: 43 fold
- Fold (Novaferon/HuIFN-α2b), increased tumor cell inhibition [10]: 58 fold
- Fold (Novaferon/HuIFN-α2b), increased tumor cell inhibition [11]: 58 fold
- Fold (Novaferon/HuIFN-α2b), increased tumor cell inhibition [12]: 70 fold
- Fold (Novaferon/HuIFN-α2b), increased tumor cell inhibition [13]: 74 fold
- Fold (Novaferon/HuIFN-α2b), increased tumor cell inhibition [14]: 109 fold
- Fold (Novaferon/HuIFN-α2b), increased tumor cell inhibition [15]: 128 fold
- Fold (Novaferon/HuIFN-α2b), increased tumor cell inhibition [16]: 141 fold
- Fold (Novaferon/HuIFN-α2b), increased tumor cell inhibition [17]: 143 fold
- Fold (Novaferon/HuIFN-α2b), increased tumor cell inhibition [18]: 207 fold
- Fold (Novaferon/HuIFN-α2b), increased tumor cell inhibition [19]: 212 fold
- Fold (Novaferon/HuIFN-α2b), increased tumor cell inhibition [20]: 222 fold
- Fold (Novaferon/HuIFN-α2b), increased tumor cell inhibition [21]: 282 fold
- Fold (Novaferon/HuIFN-α2b), increased tumor cell inhibition [22]: 306 fold
- Fold (Novaferon/HuIFN-α2b), increased tumor cell inhibition [23]: 350 fold
- Fold (Novaferon/HuIFN-α2b), increased tumor cell inhibition [24]: 683 fold
- Fold (Novaferon/HuIFN-α2b), increased tumor cell inhibition [25]: 733 fold
- Fold (Novaferon/HuIFN-α2b), increased tumor cell inhibition [26]: 876 fold
- Fold (Novaferon/HuIFN-α2b), increased tumor cell inhibition [27]: 1134 fold
- Inhibition rate ([28]; 1.25 μg/kg daily s.c.): 35.0%
- Tumor weight (mean ± SD) ([28]; 1.25 μg/kg daily s.c.): 1.266 ± 0.457 g
- Inhibition rate ([28]; 12.5 μg/kg daily s.c.): 61.0%
- Tumor weight (mean ± SD) ([28]; 12.5 μg/kg daily s.c.): 0.759 ± 0.574 g
- Inhibition rate ([28]; 125 μg/kg daily s.c.): 95.3% and 95.1%
- Tumor weight (mean ± SD) ([28]; 125 μg/kg daily s.c.): 0.09±0.081 g and 0.091±0.081 g and 0.091 ± 0.081***@@@ g
- average volume of tumor mass ([28]; 125 μg/kg daily s.c., day 28): 107.9±68.7 mm^3
- average volume of tumor mass ([28]; 125 μg/kg daily s.c., day 30): 122.1±100.7 mm^3
- Inhibition rate ([29]; 1.25 μg/kg daily s.c.): 63.4%
- average tumor volume ([29]; 1.25 μg/kg daily s.c.): 783.2±270.0 mm^3
- Tumor weight (mean ± SD) ([29]; 1.25 μg/kg daily s.c.): 0.797 ± 0.397 g
- Inhibition rate ([29]; 12.5 μg/kg daily s.c.): 85.3%
- average tumor volume ([29]; 12.5 μg/kg daily s.c.): 439.3±414.3 mm^3
- Tumor weight (mean ± SD) ([29]; 12.5 μg/kg daily s.c.): 0.321 ± 0.300 g
- Inhibition rate ([29]; 125 μg/kg daily s.c.): 96.6%
- average tumor volume ([29]; 125 μg/kg daily s.c.): 104.6±56.5 mm^3
- Tumor weight (mean ± SD) ([29]; 125 μg/kg daily s.c.): 0.074±0.083 g and 0.074 ± 0.083***@ g
- Inhibition rate ([1]; 1.25 μg/kg daily s.c.): 40.1%
- Tumor weight (X ± SD) ([1]; 1.25 μg/kg daily s.c., 30 days (28 days in the source)): 1.830 ± 0.289 g
- Inhibition rate ([1]; 12.5 μg/kg daily s.c.): 75.0%
- Tumor weight (X ± SD) ([1]; 12.5 μg/kg daily s.c., 30 days (28 days in the source)): 0.763±0.187 g and 0.763 ± 0.187***&& $$$ g
- Inhibition rate ([1]; 125 μg/kg daily s.c.): 82.8%
- Tumor weight (X ± SD) ([1]; 125 μg/kg daily s.c., 30 days (28 days in the source)): 0.527±0.149 g and 0.527 ± 0.149***&&&@@@ g
- Inhibition rate ([2]; 1.25 μg/kg daily s.c., 28 days): 75.0%
- Tumor weight (X ± SD) ([2]; 1.25 μg/kg daily s.c., 28 days): 1.043 ± 0.433 g
- Inhibition rate ([2]; 12.5 μg/kg daily s.c., 28 days): 80.5%
- Tumor weight (X ± SD) ([2]; 12.5 μg/kg daily s.c., 28 days): 0.815 ± 0.221 g
- Inhibition rate ([2]; 125 μg/kg daily s.c., 28 days): 92.5%
- Tumor weight (X ± SD) ([2]; 125 μg/kg daily s.c., 28 days): 0.314 ± 0.086 &&&@@@ g
- Inhibition rate ([3]; 1.25 μg/kg daily s.c., 21 days): 43.8%
- Tumor weight (X ± SD) ([3]; 1.25 μg/kg daily s.c., 21 days): 2.091 ± 0.653 g
- Inhibition rate ([3]; 12.5 μg/kg daily s.c., 21 days): 55.2%
- Tumor weight (X ± SD) ([3]; 12.5 μg/kg daily s.c., 21 days): 1.668 ± 0.665 g
- Inhibition rate ([3]; 125 μg/kg daily s.c., 21 days): 80.4%
- Tumor weight (X ± SD) ([3]; 125 μg/kg daily s.c., 21 days): 0.729 ± 0.332***@ g
- general condition of treated mice (eating, behavior, weight loss) [4]: did not induce weight loss, activity changes and other negative side-effects; also recorded: normal eating and activity behavior and no weight loss; also recorded: generally ate and behaved normally, and had no weight loss
